Experimental findings from the RNAGym collection of RNA variant scans (doi:10.7554/elife.90254) are described below.

B1: OR4K15 (parent)
chain: GUUAACGGUCAUAGGCCAUGGAAACUAGGAGCACCAUUUCGCUGCCAGUGAAGAAAUGAACAAAGAAAAUCUGGGCCAGGCAGGCAUCAAAAGAAAUAGUCUUGCGCUCAACCAGAAAGUCUGUAAUCAUUUUAAGGGUA

Variants of B1 are the subject of the series. As to the kind of experiment: self-cleavage, relative activity (ratio to wild type); higher = more cleavage; in vitro, sequencing; the parent is a self-cleaving ribozyme.
Regarding GUUAACGGUCAUAGGCCAUGGAAACUAGGAGCACCAUUUCGCUGCCAGUGAAGAAAUGAACAAAGAAAAUCUGGGCCAGGCAGGCAUCAAAAGAAAUAGUCUUGCGCUCAACCAGAAAGUCUGUAAUCAUUCCAAGGGUA [U132C U133C], the self-cleavage came out at 1.1.
The value for GUUAACGGUCAUAGGCCAUGGAAACUAGGAGCACCAUUUCGCUGCCAGUGAAGAAAUGAACAAAGAAAAUCUGGGCCAGGCAGGCAUCAAAAGAAAUAGUCUUGCGCUCAACCAGAAAGUCUGUAAUCACUUUAAGGGCA [U130C U139C] was 1.09; that for GUUAACGGUCAUAGGCCAUGGAAACUAGGAGCACCAUUUCGCUGCCAGUGAAGAAAUGAACAAAGAAAAUCUGGGCCAGGCAGGCAUCAAAAGAAAUAGUCUUGCGCUCAACCAGAAAGUCUGUAAUCACUUUAGGGGUA [U130C A135G] was 1.89; that for GUUAACGGUCAUAGGCCAUGGAAACUAGGAGCACCAUUUCGCUGCCAGUGAAGAAAUGAACAAAGAAAAUCUGGGCCAGGCAGGCAUCAAAAGAAAUAGUCUUGCGCUCAACCAGAAAGUCUGUAAUCAUUUUUUGGGUA [A134U A135U] was 1.42.
Turning to GUUAACGGUCAUAGGCCAUGGAAACUAGGAGCACCAUUUCGCUGCCAGUGAAGAAAUGAACAAAGAAAAUCUGGGCCAGGCAGGCAUCAAAAGAAAUAGUCUUGCGCUCAACCAGAAAGUCUGUAAUCAUUAUAAGGGUA [U132A], the self-cleavage was 1.53.
Turning to GUUAACGGUCAUAGGCCAUGGAAACUAGGAGCACCAUUUCGCUGCCAGUGAAGAAAUGAACAAAGAAAAUCUGGGCCAGGCAGGCAUCAAAAGAAAUAGUCUUGCGCUCAACCAGAAAGUCUGUAAUCAUUCUAAGGGUA [U132C], the self-cleavage is 1.05.
Take GUUAACGGUCAUAGGCCAUGGAAACUAGGAGCACCAUUUCGCUGCCAGUGAAGAAAUGAACAAAGAAAAUCUGGGCCAGGCAGGCAUCAAAAGAAAUAGUCUUGCGCUCAACCAGAAAGUCUGUAAUCAUUGUAAGGGUA [U132G]: the self-cleavage came to 0.89.
Take GUUAACGGUCAUAGGCCAUGGAAACUAGGAGCACCAUUUCGCUGCCAGUGAAGAAAUGAACAAAGAAAAUCUGGGCCAGGCAGGCAUCAAAAGAAAUAGUCUUGCGCUCAACCAGAAAGUCUGUAAUCAUUCUAAGGGUG [U132C A140G]: the self-cleavage is 1.79.
Regarding GUUAACGGUCAUAGGCCAUGGAAACUAGGAGCACCAUUUCGCUGCCAGUGAAGAAAUGAACAAAGAAAAUCUGGGCCAGGCAGGCAUCAAAAGAAAUAGUCUUGCGCUCAACCAGAAAGUCUGUAAUCAUUCUAAGGGUU [U132C A140U], the self-cleavage stood at 1.65.
On to GUUAACGGUCAUAGGCCAUGGAAACUAGGAGCACCAUUUCGCUGCCAGUGAAGAAAUGAACAAAGAAAAUCUGGGCCAGGCAGGCAUCAAAAGAAAUAGUCUUGCGCUCAACCAGAAAGUCUGUAAUCAUUUCAGGGGUA [U133C A135G], for which the self-cleavage is 0.03.
The result for GUUAACGGUCAUAGGCCAUGGAAACUAGGAGCACCAUUUCGCUGCCAGUGAAGAAAUGAACAAAGAAAAUCUGGGCCAGGCAGGCAUCAAAAGAAAUAGUCUUGCGCUCAACCAGAAAGUCUGUAAUCAUUUUGUGGGUA [A134G A135U] reads 0.3; that for GUUAACGGUCAUAGGCCAUGGAAACUAGGAGCACCAUUUCGCUGCCAGUGAAGAAAUGAACAAAGAAAAUCUGGGCCAGGCAGGCAUCAAAAGAAAUAGUCUUGCGCUCAACCAGAAAGUCUGUAAUCAUUUUGCGGGUA [A134G A135C], 1.54; that for GUUAACGGUCAUAGGCCAUGGAAACUAGGAGCACCAUUUCGCUGCCAGUGAAGAAAUGAACAAAGAAAAUCUGGGCCAGGCAGGCAUCAAAAGAAAUAGUCUUGCGCUCAACCAGAAAGUCUGUAAUCAUAUAAAGGGUA [U131A U133A], 0.95.
In the case of GUUAACGGUCAUAGGCCAUGGAAACUAGGAGCACCAUUUCGCUGCCAGUGAAGAAAUGAACAAAGAAAAUCUGGGCCAGGCAGGCAUCAAAAGAAAUAGUCUUGCGCUCAACCAGAAAGUCUGUAAUCAUAAUAAGGGUA [U131A U132A], the self-cleavage amounted to 0.14.
Regarding GUUAACGGUCAUAGGCCAUGGAAACUAGGAGCACCAUUUCGCUGCCAGUGAAGAAAUGAACAAAGAAAAUCUGGGCCAGGCAGGCAUCAAAAGAAAUAGUCUUGCGCUCAACCAGAAAGUCUGUAAUCAUUAUAAGGGUU [U132A A140U], the self-cleavage is 0.14.
The value for GUUAACGGUCAUAGGCCAUGGAAACUAGGAGCACCAUUUCGCUGCCAGUGAAGAAAUGAACAAAGAAAAUCUGGGCCAGGCAGGCAUCAAAAGAAAUAGUCUUGCGCUCAACCAGAAAGUCUGUAAUCAUAUUUAGGGUA [U131A A134U] was 0.77; that for GUUAACGGUCAUAGGCCAUGGAAACUAGGAGCACCAUUUCGCUGCCAGUGAAGAAAUGAACAAAGAAAAUCUGGGCCAGGCAGGCAUCAAAAGAAAUAGUCUUGCGCUCAACCAGAAAGUCUGUAAUCACUUUAAGGGUA [U130C] was 0.76.
For the variant GUUAACGGUCAUAGGCCAUGGAAACUAGGAGCACCAUUUCGCUGCCAGUGAAGAAAUGAACAAAGAAAAUCUGGGCCAGGCAGGCAUCAAAAGAAAUAGUCUUGCGCUCAACCAGAAAGUCUGUAAUCAGUUUAAGGGUA [U130G], the self-cleavage came out at 1.03.
With GUUAACGGUCAUAGGCCAUGGAAACUAGGAGCACCAUUUCGCUGCCAGUGAAGAAAUGAACAAAGAAAAUCUGGGCCAGGCAGGCAUCAAAAGAAAUAGUCUUGCGCUCAACCAGAAAGUCUGUAAUCAUCUAAAGGGUA [U131C U133A], the self-cleavage came to 0.91.
For GUUAACGGUCAUAGGCCAUGGAAACUAGGAGCACCAUUUCGCUGCCAGUGAAGAAAUGAACAAAGAAAAUCUGGGCCAGGCAGGCAUCAAAAGAAAUAGUCUUGCGCUCAACCAGAAAGUCUGUAAUCAUCUUAAAGGUA [U131C G136A], the self-cleavage worked out at 0.88.
As to GUUAACGGUCAUAGGCCAUGGAAACUAGGAGCACCAUUUCGCUGCCAGUGAAGAAAUGAACAAAGAAAAUCUGGGCCAGGCAGGCAUCAAAAGAAAUAGUCUUGCGCUCAACCAGAAAGUCUGUAAUCAUUAUAAGGGCA [U132A U139C], the self-cleavage amounted to 1.56.
For the variant GUUAACGGUCAUAGGCCAUGGAAACUAGGAGCACCAUUUCGCUGCCAGUGAAGAAAUGAACAAAGAAAAUCUGGGCCAGGCAGGCAUCAAAAGAAAUAGUCUUGCGCUCAACCAGAAAGUCUGUAAUCAUUUUGAGGGUA [A134G], the self-cleavage turned out to be 1.15.
As for GUUAACGGUCAUAGGCCAUGGAAACUAGGAGCACCAUUUCGCUGCCAGUGAAGAAAUGAACAAAGAAAAUCUGGGCCAGGCAGGCAUCAAAAGAAAUAGUCUUGCGCUCAACCAGAAAGUCUGUAAUCAUUUUCAGGGUA [A134C], the self-cleavage came out at 1.35.
GUUAACGGUCAUAGGCCAUGGAAACUAGGAGCACCAUUUCGCUGCCAGUGAAGAAAUGAACAAAGAAAAUCUGGGCCAGGCAGGCAUCAAAAGAAAUAGUCUUGCGCUCAACCAGAAAGUCUGUAAUCAUUUUUAGGGUA [A134U]: the self-cleavage was 1.26.
With GUUAACGGUCAUAGGCCAUGGAAACUAGGAGCACCAUUUCGCUGCCAGUGAAGAAAUGAACAAAGAAAAUCUGGGCCAGGCAGGCAUCAAAAGAAAUAGUCUUGCGCUCAACCAGAAAGUCUGUAAUCACUAUAAGGGUA [U130C U132A], the self-cleavage was determined as 1.4.
In the case of GUUAACGGUCAUAGGCCAUGGAAACUAGGAGCACCAUUUCGCUGCCAGUGAAGAAAUGAACAAAGAAAAUCUGGGCCAGGCAGGCAUCAAAAGAAAUAGUCUUGCGCUCAACCAGAAAGUCUGUAAUCACUCUAAGGGUA [U130C U132C], the self-cleavage amounted to 1.17.
In the case of GUUAACGGUCAUAGGCCAUGGAAACUAGGAGCACCAUUUCGCUGCCAGUGAAGAAAUGAACAAAGAAAAUCUGGGCCAGGCAGGCAUCAAAAGAAAUAGUCUUGCGCUCAACCAGAAAGUCUGUAAUCAUUCUUAGGGUA [U132C A134U], the self-cleavage was 1.49.
In the case of GUUAACGGUCAUAGGCCAUGGAAACUAGGAGCACCAUUUCGCUGCCAGUGAAGAAAUGAACAAAGAAAAUCUGGGCCAGGCAGGCAUCAAAAGAAAUAGUCUUGCGCUCAACCAGAAAGUCUGUAAUCAUUAUAGGGGUA [U132A A135G], the self-cleavage came out at 0.87.
On to GUUAACGGUCAUAGGCCAUGGAAACUAGGAGCACCAUUUCGCUGCCAGUGAAGAAAUGAACAAAGAAAAUCUGGGCCAGGCAGGCAUCAAAAGAAAUAGUCUUGCGCUCAACCAGAAAGUCUGUAAUCAUUCUAUGGGUA [U132C A135U], for which the self-cleavage came to 2.17.
Turning to GUUAACGGUCAUAGGCCAUGGAAACUAGGAGCACCAUUUCGCUGCCAGUGAAGAAAUGAACAAAGAAAAUCUGGGCCAGGCAGGCAUCAAAAGAAAUAGUCUUGCGCUCAACCAGAAAGUCUGUAAUCACUUUAAGGAUA [U130C G138A], the self-cleavage amounted to 1.41.
In the case of GUUAACGGUCAUAGGCCAUGGAAACUAGGAGCACCAUUUCGCUGCCAGUGAAGAAAUGAACAAAGAAAAUCUGGGCCAGGCAGGCAUCAAAAGAAAUAGUCUUGCGCUCAACCAGAAAGUCUGUAAUCACUUAAAGGGUA [U130C U133A], the self-cleavage amounted to 2.08.
GUUAACGGUCAUAGGCCAUGGAAACUAGGAGCACCAUUUCGCUGCCAGUGAAGAAAUGAACAAAGAAAAUCUGGGCCAGGCAGGCAUCAAAAGAAAUAGUCUUGCGCUCAACCAGAAAGUCUGUAAUCAUCUUAAGGGAA [U131C U139A]: the self-cleavage came out at 1.84.
For the variant GUUAACGGUCAUAGGCCAUGGAAACUAGGAGCACCAUUUCGCUGCCAGUGAAGAAAUGAACAAAGAAAAUCUGGGCCAGGCAGGCAUCAAAAGAAAUAGUCUUGCGCUCAACCAGAAAGUCUGUAAUCAUCUUAAGGGCA [U131C U139C], the self-cleavage was found to be 0.46.
As for GUUAACGGUCAUAGGCCAUGGAAACUAGGAGCACCAUUUCGCUGCCAGUGAAGAAAUGAACAAAGAAAAUCUGGGCCAGGCAGGCAUCAAAAGAAAUAGUCUUGCGCUCAACCAGAAAGUCUGUAAUCAUUUUAGGGGUA [A135G], the self-cleavage stood at 1.14.
As to GUUAACGGUCAUAGGCCAUGGAAACUAGGAGCACCAUUUCGCUGCCAGUGAAGAAAUGAACAAAGAAAAUCUGGGCCAGGCAGGCAUCAAAAGAAAUAGUCUUGCGCUCAACCAGAAAGUCUGUAAUCAUUUUACGGGUA [A135C], the self-cleavage came out at 0.69.
Consider GUUAACGGUCAUAGGCCAUGGAAACUAGGAGCACCAUUUCGCUGCCAGUGAAGAAAUGAACAAAGAAAAUCUGGGCCAGGCAGGCAUCAAAAGAAAUAGUCUUGCGCUCAACCAGAAAGUCUGUAAUCAUCUUAAGGGUA [U131C], for which the self-cleavage came out at 0.71.
For the variant GUUAACGGUCAUAGGCCAUGGAAACUAGGAGCACCAUUUCGCUGCCAGUGAAGAAAUGAACAAAGAAAAUCUGGGCCAGGCAGGCAUCAAAAGAAAUAGUCUUGCGCUCAACCAGAAAGUCUGUAAUCAUAUUAAGGGUA [U131A], the self-cleavage was 1.05.
Consider GUUAACGGUCAUAGGCCAUGGAAACUAGGAGCACCAUUUCGCUGCCAGUGAAGAAAUGAACAAAGAAAAUCUGGGCCAGGCAGGCAUCAAAAGAAAUAGUCUUGCGCUCAACCAGAAAGUCUGUAAUCAUGUUAAGGGUA [U131G], for which the self-cleavage amounted to 0.76.
On to GUUAACGGUCAUAGGCCAUGGAAACUAGGAGCACCAUUUCGCUGCCAGUGAAGAAAUGAACAAAGAAAAUCUGGGCCAGGCAGGCAUCAAAAGAAAUAGUCUUGCGCUCAACCAGAAAGUCUGUAAUCAUUUCGAGGGUA [U133C A134G], for which the self-cleavage is 0.26.
Turning to GUUAACGGUCAUAGGCCAUGGAAACUAGGAGCACCAUUUCGCUGCCAGUGAAGAAAUGAACAAAGAAAAUCUGGGCCAGGCAGGCAUCAAAAGAAAUAGUCUUGCGCUCAACCAGAAAGUCUGUAAUCAUUCUAAGGGCA [U132C U139C], the self-cleavage is 1.81.
For GUUAACGGUCAUAGGCCAUGGAAACUAGGAGCACCAUUUCGCUGCCAGUGAAGAAAUGAACAAAGAAAAUCUGGGCCAGGCAGGCAUCAAAAGAAAUAGUCUUGCGCUCAACCAGAAAGUCUGUAAUCAUAUUAAGGCUA [U131A G138C], the self-cleavage stood at 1.83.
